Experiments:
Recombinant human HER2 [1] = target: T1, Recombinant human HER2 (human, UniProt P04626 23-652); assay: SPR, variant captured on anti-human Fc, HER2 flowed, 25 C, pre-SEC;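 also: HER2 extracellular domain binding on Biacore T200, CM5 chip with amine-coupled anti-human Fc, duplicate antigen dilutions, global 1:1 Langmuir fit, measured after protein A purification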
T1 construct: extracellular domain; analyte of the SPR assays; also called HER2 ECD; ECD2 of HER2
Experimental: (§1) The affinity towards HER2 ECD of the samples was measured by SPR on a Biacore T200 as follows. Between 2000 and 4000 RU of anti-human Fc injected at concentration between 5 and 10 μg/ml was immobilized on a CM5 chip using standard amine coupling. Antigen-binding constructs were captured on the anti-human Fc (injected at concentration at 0.51 microg/mL in PBST, 1 min at 10 microl/min) at response levels ranging from 120-270 RU. […] HER2 dilutions were analyzed in duplicates. Sensograms were fit globally to a 1: 1 Langmuir binding model, using the software provided with the Biacore T200. All experiments were conducted at 25° C.
(§2) The affinity of antigen-binding constructs in OA format was determined by SPR following protein A purification. […] Antigen-binding constructs in FSA format were purified by protein A affinity and SEC prior to assessment of affinity by SPR.

Recombinant human HER2 [2] = target: T1, Recombinant human HER2; assay: SPR, pre-SEC; ratio to WT v10013;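 also: SPR on Biacore T200 at 25 °C, constructs captured via anti-human Fc on CM5 chip, HER2 ECD as analyte, 1:1 Langmuir global fit, after protein A purification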
Experimental: as §1, §2

Recombinant human HER2 [3] = target: T2, Recombinant human HER2 (human, UniProt P04626 23-652); assay: calculated from the SPR Ka ratio to WT v10013;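 also: SPR at 25 °C with constructs captured on an anti-human Fc chip and HER2 extracellular domain as analyte, kinetics fitted to a 1:1 Langmuir model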
T2 construct: extracellular domain; Analyte of the SPR assays; also called HER2 ECD; ECD2 of HER2

Recombinant human HER2 [4] = target: T2, Recombinant human HER2; assay: SPR, Biacore T200, 25 C; variant captured on anti-human Fc, HER2 flowed;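 also: HER2 extracellular domain analyte run as duplicate dilutions over amine-coupled anti-Fc on a CM5 chip, rates from global sensorgram fitting with a 1:1 Langmuir model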
Recombinant human HER2 [5] = target: T2, Recombinant human HER2; assay: SPR, 25 C; Ka ratio to WT v10013;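 also: constructs captured via anti-human Fc on CM5 chip, HER2 ECD as analyte in duplicate dilutions, sensorgrams globally fit to 1:1 Langmuir model on Biacore T200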
Experimental: as §1

| Binder | Kd (Recombinant human HER2 [1]) [nM] | Ka, mut/Ka, WT (Recombinant human HER2 [2]) | ΔΔG (Recombinant human HER2 [3]) [kcal/mol] | Kd (Recombinant human HER2 [4]) [nM] | koff (Recombinant human HER2 [4]) [s⁻¹] | kon (Recombinant human HER2 [4]) [M⁻¹ s⁻¹] | Ka, mut/Ka, WT (Recombinant human HER2 [5]) [fold] |
| --- | --- | --- | --- | --- | --- | --- | --- |
| variant 14067 (antibody, human IgG1, kappa, OA pertuzumab variant, HC K75Y (Kabat); also called v14067) heavy: EVQLVESGGGLVQPGGSLRLSCAASGFTFTDYTMDWVRQAPGKGLEWVADVNPNSGGSIYNQRFKGRFTLSVDRSYNTLYLQMNSLRAEDTAVYYCARNLGPSFYFDYWGQGTLVTVSSASTKGPSVFPLAPSSKSTSGGTAALGCLVKDYFPEPVTVSWNSGALTSGVHTFPAVLQSSGLYSLSSVVTVPSSSLGTQTYICNVNHKPSNTKVDKKVEPKSCDKTHTCPPCPAPELLGGPSVFLFPPKPKDTLMISRTPEVTCVVVDVSHEDPEVKFNWYVDGVEVHNAKTKPREEQYNSTYRVVSVLTVLHQDWLNGKEYKCKVSNKALPAPIEKTISKAKGQPREPQVYVYPPSRDELTKNQVSLTCLVKGFYPSDIAVEWESNGQPENNYKTTPPVLDSDGSFALVSKLTVDKSRWQQGNVFSCSVMHEALHNHYTQKSLSLSPG light: not shown not shown | 0.94 | 18 | – | – | – | – | – |
| Variant 14028 (antibody, human IgG1, kappa, OA (one-armed) format; clones 8776, 1811, 4372; also called v14028) heavy: EVQLVESGGGLVQPGGSLRLSCAASGFTFYDYTMDWVRQAPGKGLEWVADVNPNSGGSIYNQRFKGRFTLSVDRSWNTLYLQMNSLRAEDTAVYYCARNLGPSFYFDYWGQGTLVTVSSASTKGPSVFPLAPSSKSTSGGTAALGCLVKDYFPEPVTVSWNSGALTSGVHTFPAVLQSSGLYSLSSVVTVPSSSLGTQTYICNVNHKPSNTKVDKKVEPKSCDKTHTCPPCPAPELLGGPSVFLFPPKPKDTLMISRTPEVTCVVVDVSHEDPEVKFNWYVDGVEVHNAKTKPREEQYNSTYRVVSVLTVLHQDWLNGKEYKCKVSNKALPAPIEKTISKAKGQPREPQVYVYPPSRDELTKNQVSLTCLVKGFYPSDIAVEWESNGQPENNYKTTPPVLDSDGSFALVSKLTVDKSRWQQGNVFSCSVMHEALHNHYTQKSLSLSPG light: not shown not shown | – | – | -2.5 | ~0.25 | ~1.7e-05 | 68000 | ~67 |

The remaining binders from weak to strong by Kd (Recombinant human HER2 [4]), led by results:

| Kd (Recombinant human HER2 [1]) [nM] | Ka, mut/Ka, WT (Recombinant human HER2 [2]) | ΔΔG (Recombinant human HER2 [3]) [kcal/mol] | Kd (Recombinant human HER2 [4]) [nM] | koff (Recombinant human HER2 [4]) [s⁻¹] | kon (Recombinant human HER2 [4]) [M⁻¹ s⁻¹] | Ka, mut/Ka, WT (Recombinant human HER2 [5]) [fold] | Binder |
| --- | --- | --- | --- | --- | --- | --- | --- |
| – | – | -2.4 | ~0.29 | ~2.7e-05 | 91000 | ~57 | Variant 14026 (antibody, human IgG1, kappa, OA (one-armed) format; clones 8774, 1811, 4372; also called v14026) heavy: EVQLVESGGGLVQPGGSLRLSCAASGFTFTDYTMDWVRQAPGKGLEWVADVNPNSGGSIYNQRFKGRFTLSVDRSWNTLYLQMNSLRAEDTAVYYCARNLGPWFYFDYWGQGTLVTVSSASTKGPSVFPLAPSSKSTSGGTAALGCLVKDYFPEPVTVSWNSGALTSGVHTFPAVLQSSGLYSLSSVVTVPSSSLGTQTYICNVNHKPSNTKVDKKVEPKSCDKTHTCPPCPAPELLGGPSVFLFPPKPKDTLMISRTPEVTCVVVDVSHEDPEVKFNWYVDGVEVHNAKTKPREEQYNSTYRVVSVLTVLHQDWLNGKEYKCKVSNKALPAPIEKTISKAKGQPREPQVYVYPPSRDELTKNQVSLTCLVKGFYPSDIAVEWESNGQPENNYKTTPPVLDSDGSFALVSKLTVDKSRWQQGNVFSCSVMHEALHNHYTQKSLSLSPG light: not shown not shown |
| – | – | -3 | ~0.1 | ~9e-06 | 88000 | ~164 | Variant 14027 (antibody, human IgG1, kappa, OA (one-armed) format; clones 7844, 7917, 4372; also called v14027) heavy: EVQLVESGGGLVQPGGSLRLSCAASGFTFTDYTMDWVRQAPGKGLEWVADVNPNSGGSIYNQRFKGRFTLSVDRSWNTLYLQMNSLRAEDTAVYYCARNLGPSFYFDYWGQGTLVTVSSASTKGPSVFPLAPSSKSTSGGTAALGCLVKDYFPEPVTVSWNSGALTSGVHTFPAVLQSSGLYSLSSVVTVPSSSLGTQTYICNVNHKPSNTKVDKKVEPKSCDKTHTCPPCPAPELLGGPSVFLFPPKPKDTLMISRTPEVTCVVVDVSHEDPEVKFNWYVDGVEVHNAKTKPREEQYNSTYRVVSVLTVLHQDWLNGKEYKCKVSNKALPAPIEKTISKAKGQPREPQVYVYPPSRDELTKNQVSLTCLVKGFYPSDIAVEWESNGQPENNYKTTPPVLDSDGSFALVSKLTVDKSRWQQGNVFSCSVMHEALHNHYTQKSLSLSPG light: not shown not shown |

Source: patent US20180273635A1 (Zymeworks, published 2018)
